Results reported in patent publication US20240343823A1 (Ablynx, published 2024).
Residue numbers refer to the chain shown, from its start. Read-outs that look alike come from different tables or passages of the source.

What was measured:
[1] = molecular target: T1, human GPC3 on tumor cell lines (HepG2, Huh-7, NCI-H661, MKN-45, NCI-H23, BxPC-3, NCI-H292) (human, UniProt P51654 25-554); experiment: cell-based or functional assay
[2] = molecular target: T1, human GPC3 on tumor cell lines (HepG2, …); experiment: cell-based or functional assay; remark: listed apart in the source
[3] = molecular target: T1, human GPC3 on tumor cell lines (HepG2, …); experiment: cell-based or functional assay; remark: listed apart in the source
[4] = molecular target: T1, human GPC3 on tumor cell lines (HepG2, …); experiment: cell-based or functional assay; remark: listed apart in the source
[5] = molecular target: T1, human GPC3 on tumor cell lines (HepG2, …); experiment: cell-based or functional assay; remark: listed apart in the source
[6] = molecular target: T1, human GPC3 on tumor cell lines (HepG2, …); experiment: cell-based or functional assay; remark: listed apart in the source
[7] = molecular target: T1, human GPC3 on tumor cell lines (HepG2, …); experiment: cell-based or functional assay; remark: listed apart in the source
[8] = molecular target: T2, cyno GPC3 expressed on CHO Flp-In cells (cynomolgus); experiment: flow cytometry on CHO Flp-In cyno GPC3 cells
T2 construct: range 3-559; On cells; also called cyGPC3 CHO; CHO-cGPC3

[9] = molecular target: T1, human GPC3 on tumor cell lines (HepG2, …); experiment: flow cytometry on Huh-7 cells
[10] = molecular target: T2, cyno GPC3 expressed on CHO Flp-In cells; experiment: flow cytometry on CHO Flp-In cyno GPC3 cells; remark: listed apart in the source
[11] = molecular target: T1, human GPC3 on tumor cell lines (HepG2, …); experiment: flow cytometry on HepG2 cells
[12] = molecular target: T1, human GPC3 on tumor cell lines (HepG2, …); experiment: flow cytometry on HepG2 and Huh-7 cells
Method: Periplasmic extracts were screened for human and cyno GPC3 binding in flow cytometry using CHO Flp-In cells (Invitrogen cat nr. K6010) expressing either human GPC3 (accession number P51654; Q25-R358, S359-H580) or cyno GPC3 (accession number P51654; Q3-R358; S359-H559), respectively. In brief, 1×10⁵ cells were incubated in 1:5 diluted periplasmic extracts for 30 min at 4° C., and then washed 3 times. As a control, the parental CHO Flp-In cell line (Invitrogen cat nr. K6010) was included. […] Samples were washed and resuspended in FACS Buffer (D-PBS (Gibco) with 10% FBS (Sigma) and 0.05% sodium azide (Merck)) supplemented with 5 nM TOPRO3 (Molecular Probes, cat nr T3605). Cell suspensions were then analyzed on a FACS Array. Gating was set on live, intact cells using forward/side scatter and TOPRO3 channel fluorescence parameters.
Variants were evaluated for binding to HepG2, Huh-7 and CHO Flip-In cyno-GPC3 cells by flow cytometry, as described in Example 1.

B1: A022600027 (other)
chain: DVQLVESGGGLVQPGGSLRLSCVASGDVHKINFLGWYRQAPGKEREKVAHISIGDQTDYADSAKGRFTISRDESKNMVYLQMNSLKPEDTAVYFCRAFSRIYPYDYWGQGTLVTVSSGGGGSGGGGSGGGGSGGGGSGGGGSGGGGSGGGGSEVQLVESGGGLVQPGGSLRLSCVASGFTFSSFAMTWVRRPPGKGLEWVATITNGGVTSYRDSVKGRFTISRDNAKNTLYLEMTSLNPEDTAVYICANARRTGPRAPTDIGSYRGQGTLVTVSSGGGGSGGGGSGGGGSGGGGSGGGGSGGGGSGGGGSEVQLVESGGGVVQPGGSLRLSCAASGLTFSSYAMGWFRQAPGKERERVVSISRGGGYTYYADSVKGRFTISRDNSENTVYLQMNSLRPEDTALYYCAAARYWATGSEYEFDYWGQGTLVTVSS
IC50 (M), Incucyte human TDC HepG2-Nuclight green assay [1]: 8.6e-09 M

B2: A022600167 (other)
chain: DVQLVESGGGVVQPGGSLRLSCVASGYVHKINFYGWYRQAPGKEREKVAHISIGDQTDYADSAKGRFTISRDESKNTVYLQMNSLRPEDTAAYYCRALSRIWPYDYWGQGTLVTVSSGGGGSEVQLVESGGGLVQPGGSLRLSCVASGFTFSSFAMTWVRRPPGKGLEWVATITNGGVTSYRDSVKGRFTISRDNAKNTLYLEMTSLNPEDTAVYICANARRTGPRAPTDIGSYRGQGTLVTVSSGGGGSGGGGSGGGGSGGGGSGGGGSGGGGSGGGGSEVQLVESGGGVVQPGGSLRLSCAASGFTFRSFGMSWVRQAPGKGPEWVSSISGSGSDTLYADSVKGRFTISRDNSKNTLYLQMNSLRPEDTALYYCTIGGSLSRSSQGTLVTVSSA
HepG2 on Incucyte IC50 [2]: 1.92 nM
HepG2 on Incucyte Max % killing [2]: 98%
Huh7 on xCELLigence IC50 [2]: 8.61 nM
Huh7 on xCELLigence Max % killing [2]: 91%
HepG2 on Incucyte IC50 [3]: 1.92 nM
HepG2 on Incucyte Max % killing [3]: 98%
Huh7 on xCELLigence IC50 [3]: 8.61 nM
Huh7 on xCELLigence Max % killing [3]: 91%
IC50 (M), xCELLigence human TDC assay, Hep-G2 [4]: 9.2e-11 M
IC50 (M), xCELLigence human TDC assay, Huh-7 [4]: 4.7e-10 M
IC50 (M), xCELLigence human TDC assay, NCI-H661 [4]: 1.8e-10 M
HepG2 on Incucyte IC50 [5]: 1.92 nM
HepG2 on Incucyte Max % killing [5]: 98%
Huh7 on xCELLigence IC50 [5]: 8.61 nM
Huh7 on xCELLigence Max % killing [5]: 91%

B3: A022600168 (other)
chain: DVQLVESGGGVVQPGGSLRLSCVASGYVHKINFYGWYRQAPGKEREKVAHISIGDQTDYADSAKGRFTISRDESKNTVYLQMNSLRPEDTAAYYCRALSRIWPYDYWGQGTLVTVSSGGGGSEVQLVESGGGLVQPGGSLRLSCVASGFTFSSFAMTWVRRPPGKGLEWVATITNGGVTSYRDSVKGRFTISRDNAKNTLYLEMTSLNPEDTAVYICANARRTGPRAPTDIGSYRGQGTLVTVSSGGGGSGGGGSGGGGSGGGGSGGGGSGGGGSGGGGSEVQLVESGGGLVQPGGSLRLSCVASGSIFRSVFSSSTMEWYRQPPGKKRELVARIAPGDGTNYGALYADSVKGRFTISRDDAKKTVDLQMNSLKPEDTGVYFCASGVAWGQGTLVTVSSGGGGSGGGGSGGGGSGGGGSGGGGSGGGGSGGGGSEVQLVESGGGVVQPGGSLRLSCAASGFTFRSFGMSWVRQAPGKGPEWVSSISGSGSDTLYADSVKGRFTISRDNSKNTLYLQMNSLRPEDTALYYCTIGGSLSRSSQGTLVTVSSA
HepG2 on Incucyte IC50 [2]: 0.367 nM
HepG2 on Incucyte Max % killing [2]: 103%
Huh7 on xCELLigence IC50 [2]: 0.198 nM
Huh7 on xCELLigence Max % killing [2]: 107%
HepG2 on Incucyte IC50 [3]: 0.367 nM
HepG2 on Incucyte Max % killing [3]: 103%
Huh7 on xCELLigence IC50 [3]: 0.198 nM
Huh7 on xCELLigence Max % killing [3]: 107%
IC50 (M), xCELLigence human TDC assay, Hep-G2 [4]: 7.3e-11 M
IC50 (M), xCELLigence human TDC assay, Huh-7 [4]: 2.4e-11 M
IC50 (M), xCELLigence human TDC assay, NCI-H661 [4]: 1.4e-10 M
HepG2 on Incucyte IC50 [5]: 0.367 nM
HepG2 on Incucyte Max % killing [5]: 103%
Huh7 on xCELLigence IC50 [5]: 0.198 nM
Huh7 on xCELLigence Max % killing [5]: 107%

B4: A022600103 (other)
chain: B2 chain with A92L
HepG2 on Incucyte IC50 [2]: 1.23 nM
HepG2 on Incucyte Max % killing [2]: 96%
Huh7 on xCELLigence IC50 [2]: 7.11 nM
Huh7 on xCELLigence Max % killing [2]: 71%
IC50 (M), Incucyte human TDC HepG2-Nuclight green assay [6]: 5.43e-10 M
Max % Killing, Incucyte human TDC HepG2-Nuclight green assay [6]: 90%
IC50 (M), Incucyte human TDC HepG2-Nuclight green assay [7]: 2.04e-09 M
Max % Killing, Incucyte human TDC HepG2-Nuclight green assay [7]: 92%

B5: A022600102 (other)
chain: DVQLVESGGGVVQPGGSLRLSCVASGYVHKINFYGWYRQAPGKEREKVAHISIGDQTDYADSAKGRFTISRDESKNTVYLQMNSLRPEDTALYYCRALSRIWPYDYWGQGTLVTVSSAAAEVQLVESGGGLVQPGGSLRLSCVASGFTFSSFAMTWVRRPPGKGLEWVATITNGGVTSYRDSVKGRFTISRDNAKNTLYLEMTSLNPEDTAVYICANARRTGPRAPTDIGSYRGQGTLVTVSSGGGGSGGGGSGGGGSGGGGSGGGGSGGGGSGGGGSEVQLVESGGGVVQPGGSLRLSCAASGFTFRSFGMSWVRQAPGKGPEWVSSISGSGSDTLYADSVKGRFTISRDNSKNTLYLQMNSLRPEDTALYYCTIGGSLSRSSQGTLVTVSSA
IC50 (M), Incucyte human TDC HepG2-Nuclight green assay [7]: 1.72e-09 M
Max % Killing, Incucyte human TDC HepG2-Nuclight green assay [7]: 94%

B6: A022600031 (bispecific antibody)
chain: DVQLVESGGGLVQPGGSLRLSCVASGDVHKINFLGWYRQAPGKEREKVAHISIGDQTDYADSAKGRFTISRDESKNMVYLQMNSLKPEDTAVYFCRAFSRIYPYDYWGQGTLVTVSSGGGGSGGGGSGGGGSGGGGSGGGGSGGGGSGGGGSEVQLVESGGGLVQAGGSLRLSCVASGSIFRSVFSSSTMEWYRQPPGKKRELVARIAPGDGTNYGALYADSVKGRFTISRDDAKKTVDLQMNSLKPEDTGVYFCASGVAWGQGTLVTVSSGGGGSGGGGSGGGGSGGGGSGGGGSGGGGSGGGGSEVQLVESGGGVVQPGGSLRLSCAASGLTFSSYAMGWFRQAPGKERERVVSISRGGGYTYYADSVKGRFTISRDNSENTVYLQMNSLRPEDTALYYCAAARYWATGSEYEFDYWGQGTLVTVSS
IC50 (M), Incucyte human TDC HepG2-Nuclight green assay [1]: 1.5e-08 M

B7: A022600096 (other)
chain: DVQLVESGGGLVQPGGSLRLSCVASGYVHKINFYGWYRQAPGKEREKVAHISIGDQTDYADSAKGRFTISRDESKNTVYLQMNSLRPEDTALYYCRALSRIWPYDYWGQGTLVTVSSGGGGSGGGGSGGGGSGGGGSGGGGSGGGGSGGGGSEVQLVESGGGLVQPGGSLRLSCVASGFTFSSFAMTWVRRPPGKGLEWVATITNGGVTSYRDSVKGRFTISRDNAKNTLYLEMTSLNPEDTAVYICANARRTGPRAPTDIGSYRGQGTLVTVSSGGGGSGGGGSGGGGSGGGGSGGGGSGGGGSGGGGSEVQLVESGGGVVQPGGSLRLSCAASGFTFRSFGMSWVRQAPGKGPEWVSSISGSGSDTLYADSVKGRFTISRDNSKNTLYLQMNSLRPEDTALYYCTIGGSLSRSSQGTLVTVSSA
IC50 (M), Incucyte human TDC HepG2-Nuclight green assay [7]: 1.4e-09 M
Max % Killing, Incucyte human TDC HepG2-Nuclight green assay [7]: 72%

B8: A022600345 (VHH)
VHH: EVQLVESGGGVVQPGGSLRLSCAASGFTFSSFAMTWVRRPPGKGLEWVATITNAGVTSYADSVKGRFTISRDNAKNTLYLQMNSLRPEDTALYICANARRTGPRAPTDIGSYRGQGTLVTVSS
EC50 [8]: 0.15 nM
EC50 [9]: 0.276 nM
fold increase in binding potency against parental A0226018C08 [10]: 2 fold
EC50 [11]: 0.391 nM
fold increase in binding potency against parental A0226018C08 [12]: 2 fold

B9: A022600351 (VHH)
VHH: B8 VHH with A54K
notes: also called A0226000351
EC50 [8]: 0.21 nM
EC50 [9]: 0.477 nM
fold increase in binding potency against parental A0226018C08 [10]: 2 fold
EC50 [11]: 0.431 nM
fold increase in binding potency against parental A0226018C08 [12]: 2 fold
